{"source": "paper PMC5320947", "about": "(Angewandte Chemie (International ed. in English), 2016)", "key": {"[1]": {"system": "fed blood glucose levels in C57BL/6J mice", "type": "in vivo"}, "[2]": {"parameters": "species or system mice", "settings": "mouse, in vivo"}}, "data": [{"substance": "exendin–C–PMPC75k: exendin–4 C–terminal conjugate with zwitterionic PMPC, larger conjugate", "values": [{"measurement": "duration of blood glucose reduction after a single s.c. injection", "setting": "[1]", "value": "up to 3 days"}]}, {"substance": "green fluorescent protein [native GFP]", "values": [{"measurement": "area under the curve (AUC)", "setting": "[2]", "value": 14, "unit": "%h/mL"}, {"measurement": "terminal elimination phase T1/2β", "setting": "[2]", "value": 4, "unit": "h"}, {"measurement": "total body clearance (CL) rate", "setting": "[2]", "value": 7, "unit": "mL/h"}]}]}
